B1: … (PSA, position 55, 9 amino acids) (peptide)
peptide: WVLTAAHCI
modifications: not checked
B2: … (Kallikrein, position 192, 10 amino acids) (peptide)
peptide: VTEFMLCAGL
modifications: not checked
B3: … (PSA, position 8, 10 amino acids) (peptide)
peptide: VTWIGAAPLI
modifications: not checked
B4: PSM peptide … (position 364) (peptide)
peptide: GAVEPDRYVI
modifications: not checked
B5: PSA peptide … (position 12) (peptide)
peptide: GAAPLILSRI
modifications: not checked
B6: VVFLTLSV (PSA, position 1, 8 amino acids) (peptide)
peptide: VVFLTLSV
modifications: not checked
B7: WIKDTIVA (PSA, position 248, 8 amino acids) (peptide)
peptide: WIKDTIVA
modifications: not checked
B8: … (Kallikrein, position 47, 9 amino acids) (peptide)
peptide: WAHCGGVLV
modifications: not checked
B9: WIGAAPLI (PSA, position 10, 8 amino acids) (peptide)
peptide: WIGAAPLI
modifications: not checked
B10: … (PSA, position 10, 9 amino acids) (peptide)
peptide: WIGAAPLIL
modifications: not checked
B11: … (PSM, position 434, 9 amino acids) (peptide)
peptide: WAEENSRLL
modifications: not checked
B12: PSM peptide … (position 364) (peptide)
peptide: GAVEPDRYV
modifications: not checked
B13: PSA peptide … (position 221) (peptide)
peptide: GITSWGSEPCA
modifications: not checked
B14: … (PSA, position 1, 9 amino acids) (peptide)
peptide: VVFLTLSVT
modifications: not checked
B15: PAP peptide … (position 204) (peptide)
peptide: GIWSKVYDPL
modifications: not checked
B16: PSM peptide … (position 385) (peptide)
peptide: GIDPQSGAAV
modifications: not checked
B17: … (PSM, position 602, 10 amino acids) (peptide)
peptide: VVLRKYADKI
modifications: not checked
B18: PSM peptide … (position 391) (peptide)
peptide: GAAVVHEIV
modifications: not checked
B19: … (PSA, position 8, 9 amino acids) (peptide)
peptide: VTWIGAAPL
modifications: not checked
B20: … (PAP, position 226, 10 amino acids) (peptide)
peptide: WATEDTMTKL
modifications: not checked
B21: PSM peptide … (position 737) (peptide)
peptide: FTVQAAAETL
modifications: not checked
B22: … (PSA, position 49) (peptide)
peptide: VLVHPQWVLT
modifications: not checked
B23: … (PSA, position 68) (peptide)
peptide: VILLGRHSL
modifications: not checked
B24: … (Kallikrein, position 53) (peptide)
peptide: VLVHPQWVLT
modifications: not checked
B25: … (PSM, position 660) (peptide)
peptide: VLRMMNDQL
modifications: not checked
B26: … (PSM, position 12) (peptide)
peptide: VATARRPRWL
modifications: not checked
B27: VISNDVCA (PSA, position 174) (peptide)
peptide: VISNDVCA
modifications: not checked
B28: … (PSA, position 36) (peptide)
peptide: VLVASRGRAV
modifications: not checked
B29: … (PAP, position 262) (peptide)
peptide: VLVNEILNHM
modifications: not checked
B30: … (PSM, position 660) (peptide)
peptide: VLRMMNDQLM
modifications: not checked
B31: VLVHPQWV (Kallikrein, position 53) (peptide)
peptide: VLVHPQWV
modifications: not checked
B32: VLTAAHCI (PSA, position 56) (peptide)
peptide: VLTAAHCI
modifications: not checked
B33: VLVHPQWV (PSA, position 49) (peptide)
peptide: VLVHPQWV
modifications: not checked
B34: … (PSM, position 603) (peptide)
peptide: VLRKYADKI
modifications: not checked
B35: … (PSA, position 36) (peptide)
peptide: VLVASRGRA
modifications: not checked
B36: … (Kallikrein, position 53) (peptide)
peptide: VLVHPQWVL
modifications: not checked
B37: … (Kallikrein, position 5) (peptide)
peptide: VLSIALSVGCT
modifications: not checked
B38: … (PSA, position 134) (peptide)
peptide: VMDLPTQEPA
modifications: not checked
B39: … (PSM, position 115) (peptide)
peptide: VLLSYPNKT
modifications: not checked
B40: … (PSM, position 447) (peptide)
peptide: VAYINADSSI
modifications: not checked
B41: … (PSM, position 358) (peptide)
peptide: VIGTLRGAV
modifications: not checked
B42: … (PSA, position 49) (peptide)
peptide: VLVHPQWVL
modifications: not checked
B43: … (PSA, position 174) (peptide)
peptide: VISNDVCAQV
modifications: not checked
B44: PSM 568 … (peptide)
peptide: PMFKYHLTVA
modifications: not checked
B45: Kallikrein 216 … (peptide)
peptide: PLVCNGVLQGI
modifications: not checked
B46: PAP 147 … (peptide)
peptide: PLSEDQLLYL
modifications: not checked
B47: PSA 212 … (peptide)
peptide: PLVCNGVLQGI
modifications: not checked
B48: PSA 212 PLVGNGVL (peptide)
peptide: PLVCNGVL
modifications: not checked
B49: PSA 95 PLYDMSLL (peptide)
peptide: PLYDMSLL
modifications: not checked
B50: PSM 550 … (peptide)
peptide: PLYHSVYET
modifications: not checked
B51: Kallikrein 216 PLVGNGVL (peptide)
peptide: PLVCNGVL
modifications: not checked
B52: PSM peptide … (position 338, 9 amino acids) (peptide)
peptide: STQKVKMHI
modifications: not checked
B53: PSM peptide … (position 129, 10 amino acids) (peptide)
peptide: SIINEDGNEI
modifications: not checked
B54: PSA peptide SLLKNRFL (position 100, 8 amino acids) (peptide)
peptide: SLLKNRFL
modifications: not checked
B55: PSM peptide … (position 631, 10 amino acids) (peptide)
peptide: SLFSAVKNFT
modifications: not checked
B56: PSA peptide SVTWIGAA (position 7, 8 amino acids) (peptide)
peptide: SVTWIGAA
modifications: not checked
B57: PAP peptide … (position 13, 9 amino acids) (peptide)
peptide: SLSLGFLFL
modifications: not checked
B58: PSM peptide … (position 107, 10 amino acids) (peptide)
peptide: SVELAHYDVL
modifications: not checked
B59: PSM peptide … (position 615, 10 amino acids) (peptide)
peptide: SMKHPQEMKT
modifications: not checked
B60: PSA peptide … (position 67, 10 amino acids) (peptide)
peptide: SVILLGRHSL
modifications: not checked
B61: PSM peptide … (position 107, 9 amino acids) (peptide)
peptide: SVELAHYDV
modifications: not checked
B62: PSM peptide … (position 472, 10 amino acids) (peptide)
peptide: SLVHNLTKEL
modifications: not checked
B63: AVCGGVLV (PSA, position 44) (peptide)
peptide: AVCGGVLV
modifications: not checked
B64: … (PAP, position 274) (peptide)
peptide: ATQIPSYKKL
modifications: not checked

One experiment deals with HLA-A*0201 (human). In words: competition with 125I-labelled standard peptide 941.01 for purified HLA, gel filtration. To be noted: remark: other sources report otherwise; scale: ratio. (In general: SEC sorts molecules by how far they enter the pores of the column.)
On to B1, for which the binding affinity ratio stood at 0.0008.
Regarding B2, the binding affinity ratio worked out at 0.0008.

The same experiment, now with this note: scale: ratio.
Consider B3, for which the binding affinity ratio worked out at 0.0019.
On the same count and under the same terms, with B4 the figure was 0.0002; with B5, 0.0005.
Same read-out and setting: with B6 the figure was 0.0002; with B7, 0.0001; with B8, -0.0001.
Consider B9, for which the binding affinity ratio was determined as 0.0005.
Same read-out and setting: for B10 the value was 0.0005.
The same measure, in the same setting: with B11 the figure was 0.0001; with B12, 0.0001; with B13, 0.0001.
Consider B14, for which the binding affinity ratio came to 0.0008.
On the same count and under the same terms, with B15 the figure was 0.0002.
Same read-out and setting: for B16 the value was 0.0002; for B17, 0.0001; for B18, 0.0002.
The same measure, in the same setting: for B19 the value was 0.011.
Take B20: the binding affinity ratio worked out at 0.0002.
Still for that read-out and setting: for B21 the value was 0.0001.

The next experiment addresses HLA-A*0201 (human). In words: competitive inhibition of 125I-labelled standard peptide binding to purified HLA, gel filtration; ratio = IC50 standard / IC50 test peptide.
Conditions: not given
For the molecule B22, the binding affinity ratio was 0.0001.
Same read-out and setting: for B23 the value was 0.0003.
Still for that read-out and setting: with B24 the figure was 0.0001; with B25, 0.0001.
Same read-out and setting: for B26 the value was 0.0001; for B27, 0.0001; for B28, 0.0003.
On to B29, for which the binding affinity ratio turned out to be 0.0008.
Take B30: the binding affinity ratio worked out at 0.0003.
For the molecule B31, the binding affinity ratio worked out at 0.0001.
The same measure, in the same setting: with B32 the figure was 0.0001.
As for B33, the binding affinity ratio came out at 0.0001.
On to B34, for which the binding affinity ratio amounted to 0.0002.
On to B35, for which the binding affinity ratio turned out to be 0.0001.
B36: the binding affinity ratio was 0.02.
Same read-out and setting: with B37 the figure was 0.0002.
The same measure, in the same setting: with B38 the figure was 0.0001; with B39, 0.0002.
Same read-out and setting: with B40 the figure was 0.0001; with B41, 0.0002.
As to B42, the binding affinity ratio stood at 0.02.

Still in this experiment, the particulars now being: remark: other sources report otherwise.
As to B43, the binding affinity ratio came out at 0.0008.

The target of a further experiment is HLA-A*0201 (human). In words: competition with 125I-labelled standard peptide for purified HLA, gel filtration.
Conditions: not given
In the case of B44, the binding affinity ratio (IC50 of standard peptide / IC50 of test peptide) is 0.0005.
B45: the binding affinity ratio (IC50 of standard peptide / IC50 of test peptide) was 0.002.
On the same count and under the same terms, with B46 the figure was 0.0006; with B47, 0.002.
Take B48: the binding affinity ratio (IC50 of standard peptide / IC50 of test peptide) was 0.0001.
In the case of B49, the binding affinity ratio (IC50 of standard peptide / IC50 of test peptide) came out at 0.0002.
Regarding B50, the binding affinity ratio (IC50 of standard peptide / IC50 of test peptide) came out at 0.0002.
The same measure, in the same setting: for B51 the value was 0.0001.

Staying with this experiment, now noted: scale: ratio.
Turning to B52, the binding affinity ratio was 0.0001.
B53: the binding affinity ratio stood at 0.0001.
The same measure, in the same setting: with B54 the figure was 0.002.
On the same count and under the same terms, for B55 the value was 0.001; for B56, 0.0001.
Still for that read-out and setting: for B57 the value was 0.02.
With B58, the binding affinity ratio turned out to be 0.0002.
The same measure, in the same setting: for B59 the value was 0.0001; for B60, 0.0001.
Regarding B61, the binding affinity ratio was found to be 0.0001.
Take B62: the binding affinity ratio was found to be 0.0002.

The target in the next experiment is HLA-A*0201 (human). In words: inhibition of 125I-labelled standard peptide binding to purified HLA-A*0201, gel filtration.
Conditions: not given
B63: the binding affinity ratio (IC50 of standard peptide / IC50 of test peptide) is 0.0003.
Regarding B64, the binding affinity ratio (IC50 of standard peptide / IC50 of test peptide) worked out at 0.0002.

For the origin of these results see patent publication US20070020327A1.
